# How the values were obtained:
# [1] = cited from earlier work
# Protocol: The injected activities were selected to enable good counting statistics, permitting accurate dosimetry calculations up to 24 h after injection. […] Considering that the clear SPECT visualization was already observed 2 h after injection, the injected activ ...
# [2] = clinical; set-up: species or system human; conditions: in vivo; for tissue uptake dose at 4 h / tissue uptake dose at 6 h / tissue uptake dose at 24 h / tissue uptake dose at 2 h: human, SD
# Protocol: Imaging was performed using a Siemens Symbia Intevo Bold scanner equipped with a high-resolution, low-energy collimator. Anterior and posterior planar whole-body imaging (at a scan speed of 12 cm/min, 1024 × 256 pixel matrix) was performed at 2, 4, 6, and 24 h after injection of [^99mTc]Tc-DB8. SPECT/CT scans (SPECT: 60 projections, 20 s each, stored in 256 × 256 pixel matrix/CT: 130 kV, effective 36 mAs) covering the area from the neck to liver were performed 2, 4, and 6 h after injection of [^99mTc]Tc-DB8. SPECT images were reconstructed using xSPECT (Siemens) protocol based on the ordered subset conjugate gradient (OSCG) method (24 iterations, 2 subsets) with a 3D Gaussian FWHM 10 mm filter (Soft Tissue). The images were processed using the proprietary software package Syngo.via Workstation (Siemens Healthineers).
# (§1) Dosimetry was evaluated as described in [44]. Briefly, regions of interest (ROI) were drawn over organs of interest and over the whole body on the anterior and posterior whole-body images of patients injected with [^99mTc]Tc-DB8; a geometric mean of counts at 2, 4, 6, and 24 h was calculated for each ROI. To assess elimination kinetics in blood, a ROI was placed over the heart. For quantification, a known activity of Tc-99m in a water-filled phantom in combination with Chang’s correction was used. Data were fitted by single exponential functions and residence time was calculated as areas under fitted curves using GraphPad Prism 8.0 (GraphPad Software, San Diego, CA, USA). Absorbed doses were calculated by OLINDA/EXM 1.1 using Adult Female phantom.
# [3] = set-up: species or system human; conditions: in vivo
# Protocol: as §1
# [4] = 40 ug, Uptake in Liver (decay-corrected)
# [5] = 40 ug, Uptake in Lungs (decay-corrected)
# [6] = 40 ug, Uptake in Pancreas (decay-corrected)
# [7] = 40 ug, total radioactivity, Uptake in Breast (decay-corrected)
# [8] = 40 ug, total radioactivity, Uptake in Kidney (decay-corrected)
# [9] = 40 ug, total radioactivity, Uptake in Small Intestine (decay-corrected)
# [10] = 80 ug, Uptake in Liver (decay-corrected)
# [11] = 80 ug, Uptake in Lungs (decay-corrected)
# [12] = 80 ug, Uptake in Pancreas (decay-corrected)
# [13] = 80 ug, total radioactivity, Uptake in Breast (decay-corrected)
# [14] = 80 ug, total radioactivity, Uptake in Kidney (decay-corrected)
# [15] = 80 ug, total radioactivity, Uptake in Small Intestine (decay-corrected)
# [16] = 120 ug, Uptake in Liver (decay-corrected)
# [17] = 120 ug, Uptake in Lungs (decay-corrected)
# [18] = 120 ug, Uptake in Pancreas (decay-corrected)
# [19] = 120 ug, total radioactivity, Uptake in Breast (decay-corrected)
# [20] = 120 ug, total radioactivity, Uptake in Kidney (decay-corrected)
# [21] = 120 ug, total radioactivity, Uptake in Small Intestine (decay-corrected)
compound,measurement,setting,value
[^18F]FDG,Absorbed dose after injection for visualization of breast cancer,[1],2.5–4.3 mSv
"CCNC(=O)[C@H](CC(C)C)NC(=O)[C@H](Cc1c[nH]cn1)NC(=O)CNC(=O)[C@@H](NC(=O)[C@H](C)NC(=O)[C@H](Cc1c[nH]c2ccccc12)NC(=O)[C@H](CCC(N)=O)NC(=O)[C@@H](Cc1ccccc1)NC(=O)COCC(=O)Nc1ccc(CNC(=O)C(CNCCN)CNCCN)cc1)C(C)C [[^99mTc]Tc-DB8, metal not drawn]",tissue uptake dose at 4 h,[2]; [4],2.1 ± 1.1 %ID
same,tissue uptake dose at 6 h,[2]; [4],1.6 ± 0.8 %ID
same,tissue uptake dose at 24 h,[2]; [4],0.8 ± 0.4 %ID
same,tissue uptake dose at 2 h,[2]; [5],3.8 ± 0.5 %ID
same,tissue uptake dose at 4 h,[2]; [5],2.3 ± 0.3 %ID
same,tissue uptake dose at 6 h,[2]; [5],1.6 ± 0.2 %ID
same,tissue uptake dose at 24 h,[2]; [5],0.7 ± 0.1 %ID
same,tissue uptake dose at 2 h,[2]; [6],1.5 ± 0.5 %ID
same,tissue uptake dose at 4 h,[2]; [6],0.9 ± 0.4 %ID
same,tissue uptake dose at 6 h,[2]; [6],0.7 ± 0.3 %ID
same,tissue uptake dose at 24 h,[2]; [6],0.35 ± 0.09 %ID
same,tissue uptake dose at 2 h,[2]; [7],4.2 ± 1.1 %ID
same,tissue uptake dose at 4 h,[2]; [7],2.4 ± 0.4 %ID
same,tissue uptake dose at 6 h,[2]; [7],1.7 ± 0.3 %ID
same,tissue uptake dose at 24 h,[2]; [7],0.7 ± 0.1 %ID
same,tissue uptake dose at 2 h,[2]; [8],3.1 ± 1.9 %ID
same,tissue uptake dose at 4 h,[2]; [8],2.1 ± 0.9 %ID
same,tissue uptake dose at 6 h,[2]; [8],1.6 ± 0.5 %ID
same,tissue uptake dose at 24 h,[2]; [8],0.9 ± 0.2 %ID
same,tissue uptake dose at 2 h,"[2]; 40 ug, total radioactivity, Uptake in Liver (decay-corrected)",3 ± 1.6 %ID
same,tissue uptake dose at 2 h,[2]; [9],4.2 ± 1.6 %ID
same,tissue uptake dose at 4 h,[2]; [9],2.8 ± 1.1 %ID
same,tissue uptake dose at 6 h,[2]; [9],2.1 ± 0.7 %ID
same,tissue uptake dose at 24 h,[2]; [9],1.4 ± 0.3 %ID
same,tissue uptake dose at 2 h,[2]; [10],3.3 ± 0.9 %ID
same,tissue uptake dose at 4 h,[2]; [10],2.2 ± 0.8 %ID
same,tissue uptake dose at 6 h,[2]; [10],1.4 ± 0.7 %ID
same,tissue uptake dose at 24 h,[2]; [10],0.7 ± 0.3 %ID
same,tissue uptake dose at 2 h,[2]; [11],5.9 ± 1.6 %ID
same,tissue uptake dose at 4 h,[2]; [11],4.1 ± 1.6 %ID
same,tissue uptake dose at 6 h,[2]; [11],2.8 ± 1.2 %ID
same,tissue uptake dose at 24 h,[2]; [11],0.9 ± 0.4 %ID
same,tissue uptake dose at 2 h,[2]; [12],1.2 ± 0.3 %ID
same,tissue uptake dose at 4 h,[2]; [12],0.8 ± 0.3 %ID
same,tissue uptake dose at 6 h,[2]; [12],0.6 ± 0.3 %ID
same,tissue uptake dose at 24 h,[2]; [12],0.2 ± 0.1 %ID
same,tissue uptake dose at 2 h,[2]; [13],6.2 ± 1.9 %ID
same,tissue uptake dose at 4 h,[2]; [13],3.4 ± 1.7 %ID
same,tissue uptake dose at 6 h,[2]; [13],2.7 ± 1.2 %ID
same,tissue uptake dose at 24 h,[2]; [13],0.8 ± 0.4 %ID
same,tissue uptake dose at 2 h,[2]; [14],5.1 ± 2.1 %ID
same,tissue uptake dose at 4 h,[2]; [14],2.8 ± 0.9 %ID
same,tissue uptake dose at 6 h,[2]; [14],2.2 ± 0.9 %ID
same,tissue uptake dose at 24 h,[2]; [14],1.2 ± 0.8 %ID
same,tissue uptake dose at 2 h,[2]; [15],3.4 ± 1.1 %ID
same,tissue uptake dose at 4 h,[2]; [15],2.2 ± 0.6 %ID
same,tissue uptake dose at 6 h,[2]; [15],1.6 ± 0.6 %ID
same,tissue uptake dose at 24 h,[2]; [15],0.7 ± 0.4 %ID
same,tissue uptake dose at 2 h,[2]; [16],2.2 ± 0.9 %ID
same,tissue uptake dose at 4 h,[2]; [16],1.5 ± 0.7 %ID
same,tissue uptake dose at 6 h,[2]; [16],1.1 ± 0.5 %ID
same,tissue uptake dose at 24 h,[2]; [16],0.5 ± 0.2 %ID
same,tissue uptake dose at 2 h,[2]; [17],3.5 ± 1.3 %ID
same,tissue uptake dose at 4 h,[2]; [17],2 ± 1 %ID
same,tissue uptake dose at 6 h,[2]; [17],1.6 ± 0.7 %ID
same,tissue uptake dose at 24 h,[2]; [17],0.6 ± 0.2 %ID
same,tissue uptake dose at 2 h,[2]; [18],0.8 ± 0.2 %ID
same,tissue uptake dose at 4 h,[2]; [18],0.5 ± 0.1 %ID
same,tissue uptake dose at 6 h,[2]; [18],0.34 ± 0.09 %ID
same,tissue uptake dose at 24 h,[2]; [18],0.15 ± 0.06 %ID
same,tissue uptake dose at 2 h,[2]; [19],3.5 ± 1.1 %ID
same,tissue uptake dose at 4 h,[2]; [19],2 ± 0.8 %ID
same,tissue uptake dose at 6 h,[2]; [19],1.3 ± 0.5 %ID
same,tissue uptake dose at 24 h,[2]; [19],0.6 ± 0.2 %ID
same,tissue uptake dose at 2 h,[2]; [20],3.5 ± 1.6 %ID
same,tissue uptake dose at 4 h,[2]; [20],2.2 ± 1 %ID
same,tissue uptake dose at 6 h,[2]; [20],1.7 ± 0.8 %ID
same,tissue uptake dose at 24 h,[2]; [20],1.1 ± 0.4 %ID
same,tissue uptake dose at 2 h,[2]; [21],3.3 ± 1 %ID
same,tissue uptake dose at 4 h,[2]; [21],2.1 ± 0.7 %ID
same,tissue uptake dose at 6 h,[2]; [21],1.8 ± 0.6 %ID
same,tissue uptake dose at 24 h,[2]; [21],1.1 ± 0.4 %ID
same,Route of elimination,[2],predominantly via the kidneys
same,"Absorbed dose, Urinary bladder wall",[3],0.02 ± 0.01 mGy/MBq
same,Absorbed equivalent dose,[3],4.6 mSv
same,Effective dose,[3],0.009–0.014 mSv/MBq
